The record followed here is the nanobody polyreactivity screen of Harvey et al. (2022).

The nature of this data set: yeast display, Sf9 membrane polyspecificity reagent, FACS + sequencing; frameworks hold sequencing errors. The gist of the method: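 In a synthetic yeast display library (Saccharomyces cerevisiae BJ5465), nanobody expression was induced with galactose for 36–48 hours. FACS gates were set low and high (top ~1%) using anti-HA fluorescence for expression and streptavidin fluorescence for binding of the Sf9 membrane reagent. Each polyreactivity label is drawn from the gate of origin.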
As to “QVQLVESGGGLVQAGGSLRLSCAASGRIIIYNAMGWYRQAPGKERQLVAAINRSGVSTHYADSVKGRFTISRDNAKNTVYLQMNSLKPEDTAVYYCARTVYGARSYDYWGQGTQVTVSS”, the “polyreactivity (PSR sort gate)” value is “low polyreactivity”.
Turning to “QVQLVESGGGLVQAGGSLRLRCAASGSTSPNAMGWYRQAPGKERELVAAIWSGGTYYADSVKGRFTISRDNAKNTVYLQMNSLKPEDTAVYYCAVTGVYRGFRYGYWGQGTQVTVSS”, the “polyreactivity (PSR sort gate)” value is “low polyreactivity”.
Regarding “QVQLVESGGGIVQAGGSLRLSCAASGRIFPYNAMGWYIQAPGKERELVAAIRWSGGNTYYADSVKGRFTISRDNAKNTVYLQMNSLKPEDNAVYYCAKYRRSFGFDYWGQGTQVTVSS”, the “polyreactivity (PSR sort gate)” value is on record as “high polyreactivity”.
On to “QVQLVESGGGLVQAGGSLRLSCAASGLTFFRYARGWYRQAPGKERELVATITGRGGSTYYADSVKGRFTISRDNAKNTVYLQMNSLKPEDTAVYYCAAYYSRFRYLHRDYWGQGTQVTVSS”, for which the “polyreactivity (PSR sort gate)” value is given as “high polyreactivity”.
As to “QVQLVESGGGLVQAGGSLRISCAASGSTFWYYAMGWYRQAPGKERELVAVINSGGITNYADSVKGRFTISRDNAKNTVYLQMNSLKPEDTAVYYCNKRLYWGYGEMDYWGQGTQVTVSS”, the “polyreactivity (PSR sort gate)” value is “low polyreactivity”.
As to “QVQLVESGGGLVQAGGSLRLSCAASGITFYIYAMGWYRQAPGKEREFVAAISDDGSTHYADSVKGRFTISRDNAKNTVYLQLNSLKPEDTAVYYCNADYYWFFDFFDYDYWGQGTQVTVSS”, the “polyreactivity (PSR sort gate)” value is on record as “low polyreactivity”.
Consider “QVQHVESGGGLVQAGGSLRLSCGASGITLYGYAMGWYRQAPGKEREFVAAISRSGDRTYYADSVKGRFTISRDNAKNTVYLQMNSLKPEDTAVYYCNAWRYDYWGQGTQVTVSS”, for which the “polyreactivity (PSR sort gate)” value is “high polyreactivity”.
As to “QVQLVESGGGLVQAGGSLRLSCAASGFTFAYYAMGWYRQAPGKEREFVAVITWSGGDTYYADSVKGRFTISRDNAKNTVYLQMNSLKPEDTAVSYCAATYWGTRRIYAYGYWGQGTQVTVSS”, the “polyreactivity (PSR sort gate)” value was “high polyreactivity”.
Take “QVQLVESGGGLVQAGGSLRLSCAASGITFDEYAMGWYRQAPGKERELVAAISWRGAITYYADSVKGRFTISRDNAKNTVYLQMNSLKPEDTAGYYCNADRAYTYVRYYITQDFGYWGQGTQVTVSS”: the “polyreactivity (PSR sort gate)” value is listed as “high polyreactivity”.
For “QVQLVESGGGLVQAGCSLRLSCAASGYNLFAYAMGWYRQSPGKERELVATINTSGGITYYADSVNGRFTISRDIANNTVYLQMNSLKPEDTAVYYCAAADGGGLVTYYYWGQGTQVTVSS” the value was “low polyreactivity”.
With “QVQLVESGGGLVQAGGSLRLICAASGSTFHAYAMGWYRQAPGKERDLVAAITWSGDSTYADSVKGRFTISRDKAKNTFFLQMNSLKPEETAVYDCACRGFLGHWPRPSYDYWGQGTQVTVSS”, the “polyreactivity (PSR sort gate)” value is “low polyreactivity”.
With “QVQLVESGGGLVQAGGSLRLSCAASGRGYYAMGWYRQAPGKERELVAAISRGGNTKYADSVKGRFTISRDNAKNTVYLQMNSLKPEDTAVYYCYTDWADYYYYTDYDYWGQGTQVTVSS”, the “polyreactivity (PSR sort gate)” value is given as “high polyreactivity”.
For “QVHLVESGGGLVQAGGSLRLNCAASGRTFTEYAMGWYTPAPGKERELVAAITTVGSTYYADSVKGRFTISRDNAKNTVDIQMNSQKPEDTAVYYCDVERDYWTKASYYWGQGTQVTVSS” the value was “low polyreactivity”; for “QVQLVESGGGLVQAGGSLRLSCAASGIIFAYYAMGWYRQAPGKERELVAAISWRGGSTYYADSVKGRFTISRDYAKNTVYLQMNSLKPEDTAVYYCAAAYLKKPYDYWGQGTQVTVSS”, “high polyreactivity”; for “QVQLEESGGGLVQAGGSLRLSCAASGINFQGNARGWYRQAPGKERELVASITAGGDTTYYADSVKGRFTISRDNAKNTFYLQLNSVKPEDSEVYDCAVYSWLDADDSYPDSILVDYWGQGTQVTVSS”, “low polyreactivity”.
Turning to “QVQLVESGGGLVQAGGSLRLSCAASGSTFLSYAMGWYRQAPGKERELVAVISWSGVSTYYADSVKGRFTISRDNAKNTVYLQMNSLNPEDTEVYYCNTGHHYIRTYGYWGQGTQVTVSS”, the “polyreactivity (PSR sort gate)” value is “low polyreactivity”.
“QVQLVESGRGLVQAGGSLRLSCAASGITFGYYDMGWYRQAPGKERELVAAIDWTGGGTYYADSVKGRFTISRDYAKNTVYLQMNSVKPVDTAVYYCIDHAGGDSGVSYYPEYDYWGQGTQVTLSS”: the “polyreactivity (PSR sort gate)” value is reported as “low polyreactivity”.
For “QVQLVESGGGLVQAGGSLRLRCAASGFNSVRNAMGWYRPAPGKEREFVAAISGGGGSTYYADSVKGRFTISRDNAMNTVYLQMNSLKPEDTAVYYCAPRSYWGQGTQVTVSS”, the “polyreactivity (PSR sort gate)” value is “high polyreactivity”.
Under “QVQLVESGGGLVQAGGSLRLSCAASGSIFGKDAMVWYRQAPGKEREFVAGIRGSGTRTYYADSVKGRFTISRDNAKNTVYLQLNSLKPEDTAVYYCNAVFGYRGPYYYWGQGTQVTVSS” stands “high polyreactivity”; under “QVQLVESGGGLVQAGGSLRLSCAASGSTSVQYAKGWYRQAPGKERELVAAIDRSGGSTSYADSVKGRFTISRDNAKNTVYLQMNSLKPEDTAVYYCNADPVRSTYSYDYWGLGTQVTVSS”, “low polyreactivity”; under “QVQLVESGGGLVQAGGSLRLSCAASGSTFLNYVMGWYRQAPGKERELVATINSGDSTNYADSVKGRFTISRDNAKNTVYLQMNSLKPEDTAVYYCAAEGNYWVDYWGQGTQVTVSS”, “low polyreactivity”.
On to “QVQLVESGGGLVQAGGSLRLSCAASGSTFWPYAMGWYRQAPGKERELVARINSGGNTNYADSVKGRFTISRDNAKNTVYLQMNSLKPEDTAVYYCAVRSLYEPRVYYRWVVGDGNYWGQGTQLTVSS”, for which the “polyreactivity (PSR sort gate)” value is given as “low polyreactivity”.
With “QVQLVESGGGLVQAGASLRLSCAASGRTFWKYVMGWYRQAPGKDRLLVAVISRPAGSTYYADSVKGRFTISRDNAKNTVYLQMNSLKPEDTAVYYCAKRPKNKPVLGDFDHWGQGTQVTVSS”, the “polyreactivity (PSR sort gate)” value is on record as “low polyreactivity”.
For “QVQLVESGGGLVQAGGSLRLSCAASGGIFYHNAMGWYRQAPGKERELVAAISGRGGRTYYADSVKGRFTISRDNAKNTVYLQMNSLKPEDTAVYYCAAGGQARHDYWGQGTQVTVSS” the value was “low polyreactivity”.
In the case of “QVQLVESAGGLVQAGGTLRLSCAASGRIIYRYGMGWYRQAPGKERELVASITRGGSTYYADSVKGRFTISRDNAKNTVYLQMNSLKPEDTAVYYCATKSSAGYDYWGQGTQVTVSS”, the “polyreactivity (PSR sort gate)” value was “low polyreactivity”.
Regarding “QVQLEESGGGLVQAGGSLRLSCAASGSIFVRNAMGWYRQAPGKERELVAAISRSGSSTYYADSVKGRFTISRDNAKNTVYLQMNSLKPEDTAVYYCAKRRPALRWIYYYWGQGTQVTVSS”, the “polyreactivity (PSR sort gate)” value is “high polyreactivity”.
As for “QVQLVESGGGLVQAGGSLRLSCAASGRIFYYYAMGWYRQAPGKEREFVAAITGRGGSTYYADSVKGRFTISRDNEKNTVYLQMYSLKPEDTAVYYCNAGQYFEYYGWYSRYGYWGQGTQVTVSS”, the “polyreactivity (PSR sort gate)” value is recorded as “low polyreactivity”.
For “QVQLVESGGGLVQAGGSLRLSCAASGRILSYYAMGWYRQAPGKERELVATISASGGSTYYADSVKGRFTISRDNAKNTVYLQMNSLKPEDTAVYYCAAARVPAYYLRYFYRTTYDYWGQGTQVTVSS” the value was “high polyreactivity”; for “QVQLVESGGGLVQAGGSLRLSSAASGSIFDPYAMGWYRQAPGKERELVAGISFSGGRTYYADSVKGRFTISRDNAKNTVYLQMNSLKPEDTAVYYCNKLLTQGAYPYYYWGQGTQVTVSS”, “high polyreactivity”; for “QVQLVESGGGLVQAGGSLRLSCAASGRIFWSNAMGWYRQAPGKERELVAAITWRGGSTYADSVKGRFTISRDNAKNTVYLQMNSLKPEDTAVYYCAASPSGWRYDYWGQGTQVTVSS”, “high polyreactivity”.
Consider “QVQLQESGGGLVQAGGSLRLSCAARGNIFLGDTMGWYRQAPGKEREFVAGIARGGNPYYADSVKGRFTISRNNAKNTVYLQKNSLKPVDTAVHYCAVQRSHASDYNYWGQGTQVTVSS”, for which the “polyreactivity (PSR sort gate)” value is recorded as “low polyreactivity”.
For the sequence “QVQLVESGGGLVQAGGSLRLSCAASGLTLRRYAMGWYRQAPGKETELVAGITSGGSTYYADSVKGRFTISRDNAKNTVYLQMYSLKPEDTAVYYCAARVRKYYKPYGYWGQGTQVTVSS”, the “polyreactivity (PSR sort gate)” value was “high polyreactivity”.
Under “QDQLVESGGGLVQAGGSLRLSCAASGRTFTYYTMGWYRQAPGKERELVAAITWSGGRTYYADSVKGRFTISRDYAKNTVYLQMNSLKPEDTAVYYCAKPPQGTYDYWGQGTQVNVSS” stands “low polyreactivity”; under “QVQLVESGGGLVQAGGSLRISCAASGSIFWRYVMGWYRPAPGKERELIAAISSGGGITYYADSVKGRFTISRDNAKNTVYLQMNSLKPEDTAVYYCAARTYRGQYYTGFGFGYWGQGSQVTVSS”, “high polyreactivity”; under “QVQLVESGGGLVQAGGSLRLSCAASGSIFEYYAMGWYRQAPGKERELVAAISTGGSTYYADSVKGRFTISRDNAKNTVYLQMNSLKPEDTAVYYCAAEDYHPGADTVGTGYDYWGQGTQVTVSS”, “low polyreactivity”.
For “QVQLVESGGGIVQAGGSLRLSCAASGSILSYYAMGGYRQAPGNEREFVAAISWGTITNYADSVKGRFTISRDNAKKTVYLQMNSLKPEDTAVYYCNADPYGWYSSDYDYWGQGTQVTVSS” the value was “low polyreactivity”.
For the sequence “QVQLEESGGGLVHAGGSLPLSCAASGGTFYKYAMGSYRQAPGKERELVARISRCGSTYYADSVNGRFTISRDNAKNTVYLQMNSLKPEDTAVYYCAKRWFAGWPIVVPYNYWGQGTQVTVSS”, the “polyreactivity (PSR sort gate)” value is “high polyreactivity”.
Turning to “QVQLVESGGGLVQAGGSLRLSCDASGSIFGVNAMGWYRQAPGKERELVAAINNGGSTKYADSVKGRFTISRDNAKNTVYLQMNSLKPEDTAVYYCAARSWTHYFRFDYWGQGTQVTVSS”, the “polyreactivity (PSR sort gate)” value was “high polyreactivity”.
Turning to “QVHLVESGGGLVQAGGSLRLSCSASGSIFRLNAMGWYRQAPGKERELVAAITWSDSSTYYADSVKGRFTISRDNAKNTVYLQMNSLKPVDTAVYYCAADPQSYKYDYWGQGTQVTVSS”, the “polyreactivity (PSR sort gate)” value is given as “low polyreactivity”.
As to “QVQLVESGGGLVQAGGSLRLSCAASGFTFAFYTMGWSRPAPGKESELVAGITRSGTNTYYADSLTGRFTISRDNAKNTVYLLLNSLTPEDTAVYYCAAAIRPGMDYWGQGTQVTVSS”, the “polyreactivity (PSR sort gate)” value is “high polyreactivity”.
Turning to “QVHLVESGGGLVQAGGSLRLSCAASGRIFDYYTMGWYRQAPGKERELVAAITWIGGSTYYEDSVKGRFTISRDNAKNTVYLQMNSLKPEDTAVYYCYAEGTALPYRADTVGGYYYWGQGTQVTVSS”, the “polyreactivity (PSR sort gate)” value is on record as “low polyreactivity”.
